According to article PMC3149894 (Journal of molecular biology, 2010):

B1: knobΔTAYT protein containing an MA(H)6 tag at the N-terminus (Ad5 fiber knob, TAYT deleted) (domain or fragment, human adenovirus serotype 5, UniProt P11818 387-581, looked up)
chain: GAITVGNKNNDKLTLWTTPAPSPNCRLNAEKDAKLTLVLTKCGSQILATVSVLAVKGSLAPISGTVQSAHLIIRFDENGVLLNNSFLDPEYWNFRNGDLTEGNAVGFMPNLSAYPKSHGKTAKSNIVSQVYLNGDKTKPVTLTITLNGTQETGDTTPSAYSMSFSWDWSGHNYINEIFATSSYTFSYIAQE
B2: biotinylated knobΔTAYT protein carrying an N-terminal MRGS(H)6 tag followed by an AviTag (domain or fragment, human adenovirus serotype 5, UniProt P11818 387-581, looked up)
chain: B1 chain
modifications: biotin (biotinylated in the host by protein biotin ligase from pBirA)
B3: knobΔTAYT version with an N-terminal MA(H)6 tag followed by an AviTag (biotinylated) (domain or fragment, human adenovirus serotype 5, UniProt P11818 387-581, looked up)
chain: B1 chain
modifications: biotin (biotinylated in the host by protein biotin ligase from pBirA)

Target: the molecule itself
Test: SEC-MALS + other: SDS-PAGE

Row | Protein | stoichiometry N
1 | B1 | 3
2 | B2 | 3
3 | B3 | 3
